Target: CXCR4CFP (human) (UniProt P61073)
Test: FRET or BRET; sensitized-emission FRET imaging as above; cells treated with chemokines (CCL3/MIP1α, CCL5/RANTES or CXCL12/SDF-1) for 20 min before imaging; N-FRET on the plasma membrane against the unstimulated control

Chain of CCR5YFP, P51681 1-352 (receptor; other documents disagree on this pair) (P51681 whole entry): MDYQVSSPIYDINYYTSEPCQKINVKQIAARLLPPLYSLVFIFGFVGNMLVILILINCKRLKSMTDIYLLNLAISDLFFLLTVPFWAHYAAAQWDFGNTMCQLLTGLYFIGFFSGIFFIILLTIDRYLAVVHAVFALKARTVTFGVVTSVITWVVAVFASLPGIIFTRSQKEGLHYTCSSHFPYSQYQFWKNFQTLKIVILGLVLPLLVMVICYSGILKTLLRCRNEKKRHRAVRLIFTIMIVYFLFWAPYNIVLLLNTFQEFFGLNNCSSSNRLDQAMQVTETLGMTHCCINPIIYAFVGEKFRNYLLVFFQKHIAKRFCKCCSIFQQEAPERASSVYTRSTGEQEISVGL
Chain of CXCR4CFP (human) (P61073 whole entry): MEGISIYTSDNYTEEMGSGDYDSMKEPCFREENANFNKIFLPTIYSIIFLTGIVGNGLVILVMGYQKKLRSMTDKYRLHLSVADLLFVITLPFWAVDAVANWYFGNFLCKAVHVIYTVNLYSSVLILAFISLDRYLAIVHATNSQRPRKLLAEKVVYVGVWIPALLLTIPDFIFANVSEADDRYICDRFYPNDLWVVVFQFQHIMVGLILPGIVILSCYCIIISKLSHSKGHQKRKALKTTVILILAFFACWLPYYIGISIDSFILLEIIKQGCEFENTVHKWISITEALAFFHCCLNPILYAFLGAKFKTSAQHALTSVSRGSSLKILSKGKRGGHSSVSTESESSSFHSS

CCR5YFP, P51681 1-352 (receptor; other documents disagree on this pair)
increase of N-FRET with CCL3/MIP1α against the unstimulated control: 30%
increase of N-FRET with CCL5/RANTES against the unstimulated control: 30%
